The target of one test is hClaudin18.2 (human, UniProt P56856 1-261). Put plainly: FACS.
The target of a further test is CLDN18.2 (human, UniProt P56856 1-261). Put plainly: FACS.

B1: IMAB362 (antibody, V domains shown)
VH: QVQLQQPGAELVRPGASVKLSCKASGYTFTSYWINWVKQRPGQGLEWIGNIYPSDSYTNYNQKFKDKATLTVDKSSSTAYMQLSSPTSEDSAVYYCTRSWRGNSFDYWGQGTTLTVSS
VL: DIVMTQSPSSLTVTAGEKVTMSCKSSQSLLNSGNQKNYLTWYQQKPGQPPKLLIYWASTRESGVPDRFTGSGSGTDFTLTISSVQAEDLAVYYCQNDYSYPFTFGSGTKLEIKR
In general, EC50 refers to the concentration needed to bring the measured effect to its halfway point. Higher therefore signals lower potency in that assay. Consider B1, for which the values for the half-maximal effective concentration (EC50) with hClaudin18.2 and with CLDN18.2 were 6.72 nM and 19.1 nM, respectively.

The values above are taken from patent US20240034784A1 (published 2024).
